This note sets out measurements from the Human Domainome abundance scans (Beltran et al. 2025).

± gives the uncertainty stated by the source.

First the molecules themselves.
B1: Advillin, residues 785 to 819; numbered along this chain, O75366 (parent)
chain: LSEQDFVSVFGITRGQFAALPGWKQLQMKKEKGLF

Variants of B1 are the subject of the data set. As to the kind of experiment: abundance fitness (aPCA) (normalised: wild type 0, dead -1); higher = more abundant; growth selection in yeast, the domain comes from the species named. The conditions noted are these: Homo sapiens.
On to LSEQDFVSVTGITRGQFAALPGWKQLQMKKEKGLF [F10T], for which the abundance fitness was -0.367 ± 0.07.

As to LSEQDFVSVSGITRGQFAALPGWKQLQMKKEKGLF [F10S], the abundance fitness was -0.383 ± 0.067.

As for LSEQDFVSVQGITRGQFAALPGWKQLQMKKEKGLF [F10Q], the abundance fitness is -0.59 ± 0.087.

With LSEQDFVSVYGITRGQFAALPGWKQLQMKKEKGLF [F10Y], the abundance fitness was -0.016 ± 0.093.

With LSEQDFVSVMGITRGQFAALPGWKQLQMKKEKGLF [F10M], the abundance fitness is -0.305 ± 0.086.

Turning to LSEQDFVSVLGITRGQFAALPGWKQLQMKKEKGLF [F10L], the abundance fitness is -0.392 ± 0.059.

LSEQDFVSVFGITRGSFAALPGWKQLQMKKEKGLF [Q16S]: the abundance fitness is -0.211 ± 0.067.

LSEQDFVSVFGITRGTFAALPGWKQLQMKKEKGLF [Q16T]: the abundance fitness is -0.192 ± 0.077.

In the case of LSEQDFVSVFGITRGFFAALPGWKQLQMKKEKGLF [Q16F], the abundance fitness was -0.302 ± 0.13.

As to LSEQDFVSVFGITRGVFAALPGWKQLQMKKEKGLF [Q16V], the abundance fitness was -0.422 ± 0.12.

With LSEQDFVSVFGITRGHFAALPGWKQLQMKKEKGLF [Q16H], the abundance fitness is -0.183 ± 0.15.

On to LSEQDFVSVFGITRGDFAALPGWKQLQMKKEKGLF [Q16D], for which the abundance fitness is -0.347 ± 0.2.

Consider LSEQDFVSVFGITRGPFAALPGWKQLQMKKEKGLF [Q16P], for which the abundance fitness was -0.355 ± 0.29.

Consider LSEQDFVSVFGITRGRFAALPGWKQLQMKKEKGLF [Q16R], for which the abundance fitness is -0.281 ± 0.056.

Take LSEQDFVSVFGITRGGFAALPGWKQLQMKKEKGLF [Q16G]: the abundance fitness is -0.378 ± 0.069.

For the variant LSEQDFVSVFGITRGYFAALPGWKQLQMKKEKGLF [Q16Y], the abundance fitness was -0.252 ± 0.17.

For the variant LSEQDFVSVFGITRGCFAALPGWKQLQMKKEKGLF [Q16C], the abundance fitness was -0.43 ± 0.097.

For the variant LSEQDFVSVFGITRGEFAALPGWKQLQMKKEKGLF [Q16E], the abundance fitness was -0.053 ± 0.077.

Regarding LSEQDFVSVFGITRGMFAALPGWKQLQMKKEKGLF [Q16M], the abundance fitness is -0.279 ± 0.12.

For the variant LSEQDFVSVFGITRGLFAALPGWKQLQMKKEKGLF [Q16L], the abundance fitness was -0.382 ± 0.073.

Take LSEQDFVSVFGITRGWFAALPGWKQLQMKKEKGLF [Q16W]: the abundance fitness was -0.626 ± 0.1.

For the variant LSEQDFVSVFGITRGIFAALPGWKQLQMKKEKGLF [Q16I], the abundance fitness is -0.396 ± 0.41.

For the variant LSEQDFVSVFGITRGQFADLPGWKQLQMKKEKGLF [A19D], the abundance fitness is -0.068 ± 0.13.

As for LSEQDFVSVFGITRGQFACLPGWKQLQMKKEKGLF [A19C], the abundance fitness is -0.209 ± 0.16.

For LSEQDFVSVFDITRGQFAALPGWKQLQMKKEKGLF [G11D], the abundance fitness is -0.647 ± 0.27.

On to LSEQDFVSVFPITRGQFAALPGWKQLQMKKEKGLF [G11P], for which the abundance fitness is -0.797 ± 0.11.

With LSEQDFVSVFAITRGQFAALPGWKQLQMKKEKGLF [G11A], the abundance fitness was -0.485 ± 0.063.

With LSEQDFVSVFVITRGQFAALPGWKQLQMKKEKGLF [G11V], the abundance fitness is -0.537 ± 0.082.

Turning to LSEQDFVSVFEITRGQFAALPGWKQLQMKKEKGLF [G11E], the abundance fitness is -0.65 ± 0.093.

Consider LSEQDFVSVFFITRGQFAALPGWKQLQMKKEKGLF [G11F], for which the abundance fitness worked out at 0.179 ± 0.074.

On to LSEQDFVSVFLITRGQFAALPGWKQLQMKKEKGLF [G11L], for which the abundance fitness was -1.05 ± 0.14.

As to LSEQDFVSVFSITRGQFAALPGWKQLQMKKEKGLF [G11S], the abundance fitness is -0.353 ± 0.071.

As for LSEQDFVSVFMITRGQFAALPGWKQLQMKKEKGLF [G11M], the abundance fitness was -0.986 ± 0.16.

As for LSEQDFVSVFKITRGQFAALPGWKQLQMKKEKGLF [G11K], the abundance fitness was -0.453 ± 0.11.

Take LSEQDFVSVFRITRGQFAALPGWKQLQMKKEKGLF [G11R]: the abundance fitness was -0.513 ± 0.059.

LSEQDFVSVFWITRGQFAALPGWKQLQMKKEKGLF [G11W]: the abundance fitness is -0.846 ± 0.14.

In the case of LSEQDFVSVFTITRGQFAALPGWKQLQMKKEKGLF [G11T], the abundance fitness is -0.547 ± 0.12.

Take LSEQDFVSVFGETRGQFAALPGWKQLQMKKEKGLF [I12E]: the abundance fitness was -0.592 ± 0.12.

With LSEQDFVSVFGLTRGQFAALPGWKQLQMKKEKGLF [I12L], the abundance fitness was -0.101 ± 0.07.

In the case of LSEQDFVSVFGYTRGQFAALPGWKQLQMKKEKGLF [I12Y], the abundance fitness was -0.306 ± 0.14.

For LSEQDFVSVFGNTRGQFAALPGWKQLQMKKEKGLF [I12N], the abundance fitness is -0.471 ± 0.1.

As for LSEQDFVSVFGSTRGQFAALPGWKQLQMKKEKGLF [I12S], the abundance fitness is -0.629 ± 0.064.

For the variant LSEQDFVSVFGKTRGQFAALPGWKQLQMKKEKGLF [I12K], the abundance fitness was -0.312 ± 0.11.

On to LSEQDFVSVFGDTRGQFAALPGWKQLQMKKEKGLF [I12D], for which the abundance fitness was -0.442 ± 0.14.

For LSEQDFVSVFGRTRGQFAALPGWKQLQMKKEKGLF [I12R], the abundance fitness was -0.629 ± 0.058.

As to LSEQDFVSVFGTTRGQFAALPGWKQLQMKKEKGLF [I12T], the abundance fitness is -0.531 ± 0.084.

Turning to LSEQDFVSVFGVTRGQFAALPGWKQLQMKKEKGLF [I12V], the abundance fitness is -0.089 ± 0.069.

Take LSEQDFVSVFGHTRGQFAALPGWKQLQMKKEKGLF [I12H]: the abundance fitness was -0.633 ± 0.17.

LSEQDFVSVFGPTRGQFAALPGWKQLQMKKEKGLF [I12P]: the abundance fitness was -0.713 ± 0.092.

For the variant LSEQDFVSVFGGTRGQFAALPGWKQLQMKKEKGLF [I12G], the abundance fitness is -0.429 ± 0.062.

Take LSEQDFVSVFGMTRGQFAALPGWKQLQMKKEKGLF [I12M]: the abundance fitness was 0.128 ± 0.079.

On to LSEQDFVSVFGQTRGQFAALPGWKQLQMKKEKGLF [I12Q], for which the abundance fitness is -0.897 ± 0.15.

For LSEQDFVSVFGWTRGQFAALPGWKQLQMKKEKGLF [I12W], the abundance fitness is -0.999 ± 0.11.

For the variant LSEQDFVSVFGATRGQFAALPGWKQLQMKKEKGLF [I12A], the abundance fitness is -0.445 ± 0.083.

As to LSEQDFVSVFGIARGQFAALPGWKQLQMKKEKGLF [T13A], the abundance fitness is -0.397 ± 0.058.

For LSEQDFVSVFGIQRGQFAALPGWKQLQMKKEKGLF [T13Q], the abundance fitness was -0.871 ± 0.13.

As for LSEQDFVSVFGIKRGQFAALPGWKQLQMKKEKGLF [T13K], the abundance fitness was -0.314 ± 0.086.

For LSEQDFVSVFGINRGQFAALPGWKQLQMKKEKGLF [T13N], the abundance fitness is -0.26 ± 0.084.

Turning to LSEQDFVSVFGILRGQFAALPGWKQLQMKKEKGLF [T13L], the abundance fitness is -0.619 ± 0.14.

For the variant LSEQDFVSVFGIFRGQFAALPGWKQLQMKKEKGLF [T13F], the abundance fitness was -0.368 ± 0.2.

Turning to LSEQDFVSVFGIYRGQFAALPGWKQLQMKKEKGLF [T13Y], the abundance fitness was -0.017 ± 0.26.

For LSEQDFVSVFGIMRGQFAALPGWKQLQMKKEKGLF [T13M], the abundance fitness is -0.369 ± 0.14.

Regarding LSEQDFVSVFGIPRGQFAALPGWKQLQMKKEKGLF [T13P], the abundance fitness is -0.219 ± 0.11.

With LSEQDFVSVFGIERGQFAALPGWKQLQMKKEKGLF [T13E], the abundance fitness was -0.101 ± 0.08.

As to LSEQDFVSVFGIIRGQFAALPGWKQLQMKKEKGLF [T13I], the abundance fitness was -0.475 ± 0.32.

Regarding LSEQDFVSVFGIDRGQFAALPGWKQLQMKKEKGLF [T13D], the abundance fitness was -0.265 ± 0.062.

On to LSEQDFVSVFGIVRGQFAALPGWKQLQMKKEKGLF [T13V], for which the abundance fitness is -0.53 ± 0.08.

As for LSEQDFVSVFGIGRGQFAALPGWKQLQMKKEKGLF [T13G], the abundance fitness is -0.382 ± 0.055.

LSEQDFVSVFGICRGQFAALPGWKQLQMKKEKGLF [T13C]: the abundance fitness was -0.255 ± 0.12.

LSEQDFVSVFGISRGQFAALPGWKQLQMKKEKGLF [T13S]: the abundance fitness is -0.199 ± 0.08.
